Where a chain is given by its changes, count along the chain named. Numbers in names are those of the source.
T1: CD134 expressed on the cell surface of HT1080_OX40 cells (human, UniProt P43489 29-277)
T1 sequence (looked up): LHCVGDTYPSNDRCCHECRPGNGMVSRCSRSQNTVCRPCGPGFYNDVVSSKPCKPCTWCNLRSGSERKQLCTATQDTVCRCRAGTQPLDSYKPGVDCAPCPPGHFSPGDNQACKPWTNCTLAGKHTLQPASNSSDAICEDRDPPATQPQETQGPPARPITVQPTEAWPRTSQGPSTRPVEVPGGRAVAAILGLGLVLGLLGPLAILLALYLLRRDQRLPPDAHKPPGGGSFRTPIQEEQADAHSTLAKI

T2: CD134 protein (His-tagged, Sino Biological Inc. 10481-H08H) (human, UniProt P43489 29-216)
T2 construct: bought protein coated on ELISA plates; also called OX40; TNFRSF4; not shown: His tag
T2 sequence (looked up): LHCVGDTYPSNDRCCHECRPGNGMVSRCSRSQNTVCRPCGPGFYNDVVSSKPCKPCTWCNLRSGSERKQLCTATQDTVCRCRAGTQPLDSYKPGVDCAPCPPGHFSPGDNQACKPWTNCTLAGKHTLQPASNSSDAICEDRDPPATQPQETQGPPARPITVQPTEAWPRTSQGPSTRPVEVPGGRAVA

B1: P018.S.04.A.E06 (antibody, V domains shown)
VH: QSVEESGGRLVTPGTPLTLTCTVSGFSLSGYDMSWVRQAPGKGLEWIGYIYAGSTYYANWAKGRFTISKTSTTVDLKMTSPTTEDTATYFCTRVGAGYSGVWAYFNLWGPGTLVTVSS
VL: AQVLTQTPSSVSAAVGGTVTINCQSSQSVDSDNYLAWYQQKPGQPPKLLIYDASKLASGVPSRFTGSGSGTQFTLTISGVQSDDAATYYCQGTYGNIGWYFAFGGGTEVVVK
notes: V regions on human Ig constant parts; also called AB134_11
B2: P018.S.11.A.A05 (antibody, V domains shown)
VH: QSVEESGGRLVTPGTPLTLTCTVSGFSLNSYDMSWVRQAPGKGLEWIGFISASGSIYFANWAKGRFTISKTSTTVDLKITSPTTEDTATYFCASDSYGWAYVYYFNLWGPGTLVTVSS
VL: AVVLTQTPASVSAAVGGTVTINCRASEDIGSYLGWYQQKPGQPPKLLMHDASDLASGVPSRFSGSGSGTEFTLTISGVQSDDAATYYCQSAWYSSGTDKMAFGGGTEVVVK
notes: V regions on human Ig constant parts; also called AB134_22
B3: P018.S.12.A.E04 (antibody, V domains shown)
VH: B2 VH
VL: B2 VL with I29V, K39R, P40A, Y93L, S94G, S95T, G96N
notes: V regions on human Ig constant parts; also called AB134_75
B4: P018.S.04.A.D06 (antibody, V domains shown)
VH: QSLEESGGDLVKPGASLTLTCTASGFSFSSSYYMCWVRQAPGKGLEWIACIYTGDGASYYASWAKGRFTISKPSSTTVTLQVTSLTAADTATYFCGRGEYDNDWGFGLWGPGTLVTVSS
VL: AYDMTQTPASVEVPVGGTVTINCQASEDISSYLSWYQQKPGQPPELLIYYASNLASGVSSRFKGSRSGTEFTLTISDLESADAATYYCQCSNYGGSWTFGGGTEVVVK
notes: V regions on human Ig constant parts; also called AB134_9
B5: P018.S.12.A.D06 (antibody, V domains shown)
VH: QSVEESGGRLVTPGTPLTLTCTVSGFSLSSYDMSWVRQAPGKGLEWIGIIYVSGTTDYASWAKGRFTISKTSTTVDLKMTSLTTEDTATYFCARDIYVDEIGCFDLWGQGTLVTVSS
VL: DILMTQTPASVEVAVGGTVTIKCQASQNIRTYLAWYQQKPGQPPKLLIYRASTLESGVPSRFKGSGSGIEFSLTISDLESADAATYYCQNYDGGSSTGFGGGTEVVVK
notes: V regions on human Ig constant parts; also called AB134_71
B6: P018.S.04.A.F05 (antibody, V domains shown)
VH: QSVEESGGRLVTPGTPLTLTCTVSGIDLSSYTMGWVRQAPGKGLEYIGIIGTSGTTYYSSWAKGRFTISKTSTTVDLKITSPTTEDTATYFCARLGDDYGDFHFNLWGQGTLVTVSS
VL: DLVMTQTPASVSEPVGGTVTIKCQASQNIGNYLAWYQQKPGQPPKLLIYAASNLASGVSSRFKGSGSGTEYTLTISDLESADAATYYCQCTYYDSTYFAFGGGTEVVVK
notes: V regions on human Ig constant parts; also called AB134_12
B7: P018.S.11.A.C03 (antibody, V domains shown)
VH: QSVEESGGRLVTPGTPLTLTCKVSGFSLSTYDMIWVRQAPAKGLEYIGIIGGSGFTYYANWAKGRFTISKTSTTVDLKITSPTTEDTATYFCARNNYDMWGPGTLVTVSS
VL: DVVMTQTPASVSEPVGGTVTIKCQASQSISNELAWHQQKPGQRPNLLIYGASTLESGVPSRFKGSRSGTEYTLTISDLESDDAATYYCQCTYYGSSYVGGAFGGGTEVVVK
notes: V regions on human Ig constant parts; also called AB134_28
B8: P018.S.11.A.C04 (antibody, V domains shown)
VH: QSVEESGGRLVTPGTPLTLTCTVSGFSLGSYPMIWVRQAPGKGLEWIGYIDPGRGTTLYASWARGLFTISKTSTTVDLAMTSPTAADTATYFCARSYPGDGAGDLWGQGTLVTVSS
VL: DVVMTQTPASVSEPVGGTVTIKCQASESISNYFSWYQQKPGQPPKLLIYGASTLESGVSSRFKGSGSGTDFTLTISDLESADAATYYCQCTYYGSGDVGGAFGGGTEVVVK
notes: V regions on human Ig constant parts; also called AB134_29
B9: P018.S.04.A.H05 (antibody, V domains shown)
VH: QSVEESGGRLVTPGTPLTLTCTVSGFSLSSYAMGWVRQAPGKGLEWIGWINTAGGTDYTSWAKGRFTISKTSTTVDLKVTSLTTEDTATYFCARYDYYYFDLWGQGTLVTVSS
VL: AQVLTQTASSVSAAVGGTVTISCQSSQSVYDNNWLAWYQQKPGQPPKLLIYSASTLASGVPSRFKGSGSGTEFTLTISDLESDDAAAYYCHGVYSGSIHAFGGGTEVVVI
notes: V regions on human Ig constant parts; also called AB134_15
B10: P018.S.04.A.F06 (antibody, V domains shown)
VH: QSVEESGGRLVTPGTPLTLTCTVSGIDLSSSAMSWVRQAPGKGLEWIGIIGYNDFTYYANWAKGRFTISKTSTTVDLKMTSPTTEDTATYFCARGGSSSYSDYVFDPWGPGTLVTVSS
VL: AFEMTQTPSSVSEPVGGTVTIKCQASQSIYSNLAWYQQKPGQRPKLLIYDASDLASGVPSRFSGSGYGTEFTLTISDLESADAATYYCQSYYGISSYGVAFGGGTEVVVK
notes: V regions on human Ig constant parts; also called AB134_13
B11: P018.S.05.A.G05 (antibody, V domains shown)
VH: QSVEESGGRLVTPGTPLTLTCTVSGIDLSNHGMGWFRQGPGKGLEWIGIIYIDGGASYASWVNGRFTISKTSTTVDLKITSPTTEDTATYFCARGIPSDGDSSYYYFNLWGQGTLVTVAS
VL: DVVMTQTPASVEAAVGGTVTIKCQASQSVYNKYLSWFQQKPGQPPKLLIYRASTLESGVSSRFKGSGSGTEFTLTISDLESADAATYYCQNNNGAGDNTDYTFGGGTEVVVK
notes: V regions on human Ig constant parts; also called AB134_18
B12: P018.S.04.A.B06 (antibody, V domains shown)
VH: QSVEESGGRLVTPGTFLTLTCTVSGFSLSSYAMNWVRQSPGKGLEWIGIIYSDDIAYYASWAKGRFTISKTSTTVTLKMTSLTVADTATYFCARGDGDRSIWSFDLWGPGTLVTVSS
VL: AQVLTQTPSPVSAAVGGTVTISCQSSESVWNNNWLAWYQQKPGQPPNLLIYEASTLASGVSSRFKGSGSGTQFTLTVSEVQSDDAATYYCQGGYYDSSPIWTFGGGTEVVVK
notes: V regions on human Ig constant parts; also called AB134_7
B13: P018.S.04.A.A06 (antibody, V domains shown)
VH: QSLEESGGRLVTPGTPLTLTCTVSGFSLHNYNIQWVRQAPGKGLEWIGWILTDGSPYCANWAKGRFTISKTSTTVDLKITSPTIEDTATYFCARMGDYNINGLWGPGTLVTVSS
VL: AQVLTQTPSSVSAAVGGTVTINCQSSQRIYNNDFLSWYQQKPGQPPKLLIYAASTLASGVPSRFKGSGSGTQFTLTISDLESDDAATYYCQGGYSSSGWYLPFGGGTEVVVK
notes: V regions on human Ig constant parts; also called AB134_5

Each binder was assayed against T1, CD134 expressed on the cell surface of … (assay: cell-based or functional assay).
Wherever Functional assay Cross-linked by F(ab′)2 fragment IL-8 is given: test concentration or dose not given here.
Wherever Functional assay IL-8 is given: test concentration or dose not given here.

Going from B1 to B2, the “EC 50 (IL-8 release, cross-linked)” value falls from 1.39 µg/mL to 0.865 µg/mL (1.6-fold).

Compared with B3, B4 is 2.8-fold lower in “EC 50 (IL-8 release, cross-linked)” value: 1.01 µg/mL for the first, 0.355 µg/mL for the second.

First: B5
Second: B6
The “EC 50 (IL-8 release, cross-linked)” value of the first is 12-fold higher: 2.77 µg/mL for the first, 0.225 µg/mL for the second.

Going from B7 to B8, the “EC 50 (IL-8 release, cross-linked)” value rises from 0.217 µg/mL to 0.785 µg/mL (3.6-fold).

First: B9
Second: B10
The “EC 50 (IL-8 release, cross-linked)” value of the first is 2.7-fold higher: 1.17 µg/mL for the first, 0.44 µg/mL for the second.

Compared with B11, B12 is 2.1-fold lower in “EC 50 (IL-8 release, cross-linked)” value: 0.975 µg/mL for the first, 0.461 µg/mL for the second.

In the case of B13, the “EC 50 (IL-8 release, cross-linked)” value is reported as 0.63 µg/mL.

The binders below were run against T1, CD134 expressed on the cell surface of … (assay: HT1080_OX40 cells, imaging; further: test concentration or dose not given here).

First: B1
Second: B2
The “Cellular binding assay [RFU]” value of the first is lower: 140 RFU for the first, 550 RFU for the second.

Going from B3 to B4, the “Cellular binding assay [RFU]” value falls from 659 RFU to 510 RFU.

Compared with B5, B6 is higher in “Cellular binding assay [RFU]” value: 180 RFU for the first, 368 RFU for the second.

Compared with B7, B8 is lower in “Cellular binding assay [RFU]” value: 507 RFU for the first, 406 RFU for the second.

Compared with B9, B10 is lower in “Cellular binding assay [RFU]” value: 451 RFU for the first, 402 RFU for the second.

Compared with B11, B12 is higher in “Cellular binding assay [RFU]” value: 463 RFU for the first, 482 RFU for the second.

With B13 the “Cellular binding assay [RFU]” value was 486 RFU.

What follows are binders tested against T2, CD134 protein (His-tagged, Sino …) (assay: ELISA, coated His-tagged CD134; further: test concentration or dose not given here).

Going from B1 to B2, the “ELISA [abs. corr.]” value rises from 0.206 abs. corr to 1.9 abs. corr.

First: B3
Second: B4
The “ELISA [abs. corr.]” value of the first is lower: 2.21 abs. corr for the first, 2.49 abs. corr for the second.

Going from B5 to B6, the “ELISA [abs. corr.]” value rises from 0.865 abs. corr to 2.44 abs. corr.

First: B7
Second: B8
The “ELISA [abs. corr.]” value of the first is lower: 1.53 abs. corr for the first, 1.96 abs. corr for the second.

Compared with B9, B10 is lower in “ELISA [abs. corr.]” value: 2.97 abs. corr for the first, 2.36 abs. corr for the second.

Going from B11 to B12, the “ELISA [abs. corr.]” value rises from 2.62 abs. corr to 2.64 abs. corr.

With B13 the “ELISA [abs. corr.]” value was 2.85 abs. corr.

Target: T1, CD134 expressed on the cell surface of …
Assay: cell-based or functional assay
Remark: another data set of the same source

Compared with B1, B2 is lower in “Functional assay Cross-linked by F(ab′)2 fragment IL-8” value (from here on “Functional assay Cross-linked”): 2.38 abs. corr for the first, 2.15 abs. corr for the second.

First: B3
Second: B4
The “Functional assay Cross-linked” value of the first is lower: 2.23 abs. corr for the first, 2.3 abs. corr for the second.

Compared with B5, B6 is higher in “Functional assay Cross-linked” value: 2.17 abs. corr for the first, 2.4 abs. corr for the second.

B7 and B8 are the same in “Functional assay Cross-linked” value: 2.19 abs. corr for the first, 2.19 abs. corr for the second.

Compared with B9, B10 is lower in “Functional assay Cross-linked” value: 2.39 abs. corr for the first, 2.21 abs. corr for the second.

Going from B11 to B12, the “Functional assay Cross-linked” value falls from 2.39 abs. corr to 2.27 abs. corr.

B13 was tested, and the “Functional assay Cross-linked” value was 2.21 abs. corr.

Compared with B1, B2 is higher in “Functional assay IL-8” value: 0.135 abs. corr for the first, 0.26 abs. corr for the second.

Compared with B3, B4 is higher in “Functional assay IL-8” value: 0.455 abs. corr for the first, 1.01 abs. corr for the second.

Compared with B5, B6 is lower in “Functional assay IL-8” value: 0.832 abs. corr for the first, 0.181 abs. corr for the second.

Going from B7 to B8, the “Functional assay IL-8” value falls from 0.586 abs. corr to 0.253 abs. corr.

Compared with B9, B10 is higher in “Functional assay IL-8” value: 0.356 abs. corr for the first, 2.07 abs. corr for the second.

Going from B11 to B12, the “Functional assay IL-8” value falls from 2.62 abs. corr to 1.82 abs. corr.

In the case of B13, the “Functional assay IL-8” value is reported as 0.879 abs. corr.
